Holding throughout (experiment): co-immunoprecipitation (DYK-antibody beads) with immunoblot quantification
(Immunoblotting shows a protein as a band on a membrane.)

In experiment [1] the target is PKA. Particulars: TnT-DYK expressed in HEK cells, immobilized on DYK-antibody beads, incubated with healthy control iPSC-CM lysate; n = 4; DYK negative control subtracted …; parent: est. 1.0; read off a plot.
Experiment [2] has as its target tropomyosin (UniProt P09493). Particulars: TnT-DYK expressed in HEK cells, immobilized on DYK-antibody beads, incubated with healthy control iPSC-CM lysate; n = 5; DYK negative control subtracted …; parent: est. 1.0; read off a plot.
UniProt P09493, sequence (P09493 whole entry): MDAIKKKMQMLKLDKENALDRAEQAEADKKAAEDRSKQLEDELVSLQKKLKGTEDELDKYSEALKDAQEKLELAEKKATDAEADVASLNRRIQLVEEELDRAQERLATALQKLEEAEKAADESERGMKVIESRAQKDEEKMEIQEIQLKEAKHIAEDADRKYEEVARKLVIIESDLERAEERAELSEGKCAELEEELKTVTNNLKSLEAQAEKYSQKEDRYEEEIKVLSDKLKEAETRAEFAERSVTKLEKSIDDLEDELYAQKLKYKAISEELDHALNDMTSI
The target of experiment [3] is troponin C (UniProt P63316). Particulars: TnT-DYK expressed in HEK cells, immobilized on DYK-antibody beads, incubated with healthy control iPSC-CM lysate; n = 6; DYK negative control subtracted …; parent: est. 1.0; read off a plot.
Experiment [4] addresses troponin I (UniProt P19429). Particulars: TnT-DYK expressed in HEK cells, immobilized on DYK-antibody beads, incubated with healthy control iPSC-CM lysate; n = 5; DYK negative control subtracted …; parent: est. 1.0; read off a plot.
UniProt P19429, sequence (P19429 whole entry): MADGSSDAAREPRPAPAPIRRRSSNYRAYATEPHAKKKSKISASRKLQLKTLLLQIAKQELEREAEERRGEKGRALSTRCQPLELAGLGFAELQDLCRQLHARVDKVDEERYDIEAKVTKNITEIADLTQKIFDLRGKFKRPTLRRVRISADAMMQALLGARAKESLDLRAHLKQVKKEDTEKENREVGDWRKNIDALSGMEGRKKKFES

Regarding “TnT-WT-DYK (human cardiac troponin T, wild type, flag (DYK)-tagged) R173W”, the ratio to parent in experiment [1] was 0.42; in experiment [2], 0.57; in experiment [3], 0.78; in experiment [4], 0.73.

The values are drawn from PMC6959358.
